Data reported in patent publication US20240116985A1 (published 2024).
Starred links: 1 amine or outer side, 2 acyl side, 3 side chain; linkers in the order of their positions; H or OH if unused. Positions of bridges follow the written chain, without caps; N, C: chain ends. Non-standard residues stand in square brackets, D forms with d. Groups on a side chain read outwards from the residue. Primed or numbered codes have the meaning given here. *: point of attachment. (4Pippip)GlnR = (S)-5-([1,4'-bipiperidin]-1'-yl)-2-amino-5-oxopentanoic acid (Gln side-chain amide with 4-piperidinopiperidine), O=C(CC[C@H](N[*:1])C(=O)[*:2])N1CCC(N2CCCCC2)CC1; (4MePpzPip)GlnR = (S)-2-amino-5-(4-(4-methylpiperazin-1-yl)piperidin-1-yl)-5-oxopentanoic acid, CN1CCN(C2CCN(C(=O)CC[C@H](N[*:1])C(=O)[*:2])CC2)CC1; PyrS2″ = (S)-3-amino-1-((pent-4-en-1-yloxy)carbonyl)pyrrolidine-3-carboxylic acid (stapling residue), C=CCCCOC(=O)N1CC[C@@](N[*:1])(C(=O)[*:2])C1; (RDMAPyr)GlnR = (S)-2-amino-5-((R)-3-(dimethylamino)pyrrolidin-1-yl)-5-oxopentanoic acid, CN(C)[C@@H]1CCN(C(=O)CC[C@H](N[*:1])C(=O)[*:2])C1; B5(4) = 2,2-bis(4-pentenyl)glycine = 2-amino-2-(pent-4-en-1-yl)hept-6-enoic acid (stitching residue), C=CCCCC(CCCC=C)(N[*:1])C(=O)[*:2]; B5(5) = 2,2-bis(4-pentenyl)glycine, 2-amino-2-(pent-4-en-1-yl)hept-6-enoic acid (stitching residue), C=CCCCC(CCCC=C)(N[*:1])C(=O)[*:2]; TfeGA = (S)-2-amino-3-((carboxymethyl)(2,2,2-trifluoroethyl)amino)propanoic acid, O=C([C@H](CN(CC(=O)[*:3])CC(F)(F)F)N[*:1])[*:2]; PyrS1 = (S)-3-amino-1-((but-3-en-1-yloxy)carbonyl)pyrrolidine-3-carboxylic acid, C=CCCOC(=O)N1CC[C@@](N[*:1])(C(=O)[*:2])C1; B5(12) = 2-amino-2-(pent-4-en-1-yl)hept-6-enoic acid (two olefin side chains), C=CCCCC(CCCC=C)(N[*:1])C(=O)[*:2]; B5(19) = 2-amino-2-(pent-4-en-1-yl)hept-6-enoic acid (bis(4-pentenyl)glycine), C=CCCCC(CCCC=C)(N[*:1])C(=O)[*:2]; F2PipNva = (S)-2-amino-5-(4,4-difluoropiperidin-1-yl)pentanoic acid, O=C([C@H](CCCN1CCC(F)(F)CC1)N[*:1])[*:2]; Lithocholoyl = C[C@H](CCC(=O)*)[C@H]1CC[C@H]2[C@@H]3CC[C@@H]4C[C@H](O)CC[C@]4(C)[C@H]3CC[C@]12C; B5(3) = 2,2-bis(4-pentenyl)glycine (stitching residue), C=CCCCC(CCCC=C)(N[*:1])C(=O)[*:2]; Me3AdamantC = 3,5,7-trimethyladamantane-1-carbonyl, CC12CC3(C)CC(C)(C1)CC(C(=O)*)(C2)C3; Phe(3-COOH) = N[C@@H](Cc1cccc(C(=O)O)c1)C(=O)O; Phe(2-Cl) = N[C@@H](Cc1ccccc1Cl)C(=O)O; Bta = N[C@@H](Cc1csc2ccccc12)C(=O)O; αAllylPro = C=CC[C@@]1(C(=O)O)CCCN1; tBuAla = CC(C)(C)C[C@H](N)C(=O)O; 3Thi = N[C@@H](Cc1ccsc1)C(=O)O; Thr(ol) = C[C@@H](O)[C@H](N)CO; PyrS2(4) = not defined here; S5 = C=CCCC[C@](C)(N)C(=O)O; TfeGA″ = not defined here; PEG2′ = not defined here; Aib = CC(C)(N)C(=O)O

T1: B-cat-Halo (beta-catenin HaloTag NanoBRET construct expressed in HEK293 cells) (UniProt P35222 1-781, HaloTag NanoBRET 618 Ligand bound in the assay)
T1 sequence (looked up): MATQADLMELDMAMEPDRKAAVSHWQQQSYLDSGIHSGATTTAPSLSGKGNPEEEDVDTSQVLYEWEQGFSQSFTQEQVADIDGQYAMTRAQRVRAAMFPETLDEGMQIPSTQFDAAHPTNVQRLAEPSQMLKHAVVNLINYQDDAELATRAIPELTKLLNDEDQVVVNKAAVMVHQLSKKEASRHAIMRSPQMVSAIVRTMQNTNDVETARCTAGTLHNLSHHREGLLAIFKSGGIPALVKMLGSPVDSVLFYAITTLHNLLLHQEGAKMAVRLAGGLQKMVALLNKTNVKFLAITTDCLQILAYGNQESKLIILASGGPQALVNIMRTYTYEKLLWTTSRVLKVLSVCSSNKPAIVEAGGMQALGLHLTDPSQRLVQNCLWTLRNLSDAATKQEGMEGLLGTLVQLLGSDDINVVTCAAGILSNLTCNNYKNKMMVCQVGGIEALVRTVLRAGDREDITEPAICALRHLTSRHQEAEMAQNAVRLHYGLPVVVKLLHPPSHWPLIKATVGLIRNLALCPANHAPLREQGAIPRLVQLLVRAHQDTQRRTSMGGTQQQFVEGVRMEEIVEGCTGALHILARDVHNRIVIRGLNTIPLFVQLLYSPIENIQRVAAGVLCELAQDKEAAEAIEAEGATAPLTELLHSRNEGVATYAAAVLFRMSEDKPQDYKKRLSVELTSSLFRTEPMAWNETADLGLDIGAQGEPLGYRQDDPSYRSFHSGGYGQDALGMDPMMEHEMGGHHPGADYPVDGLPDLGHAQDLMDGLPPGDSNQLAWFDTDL

T2: B-cat-Halo (beta-catenin HaloTag NanoBRET construct expressed in HEK293 cells) (UniProt P35222 1-781)
T2 sequence (looked up): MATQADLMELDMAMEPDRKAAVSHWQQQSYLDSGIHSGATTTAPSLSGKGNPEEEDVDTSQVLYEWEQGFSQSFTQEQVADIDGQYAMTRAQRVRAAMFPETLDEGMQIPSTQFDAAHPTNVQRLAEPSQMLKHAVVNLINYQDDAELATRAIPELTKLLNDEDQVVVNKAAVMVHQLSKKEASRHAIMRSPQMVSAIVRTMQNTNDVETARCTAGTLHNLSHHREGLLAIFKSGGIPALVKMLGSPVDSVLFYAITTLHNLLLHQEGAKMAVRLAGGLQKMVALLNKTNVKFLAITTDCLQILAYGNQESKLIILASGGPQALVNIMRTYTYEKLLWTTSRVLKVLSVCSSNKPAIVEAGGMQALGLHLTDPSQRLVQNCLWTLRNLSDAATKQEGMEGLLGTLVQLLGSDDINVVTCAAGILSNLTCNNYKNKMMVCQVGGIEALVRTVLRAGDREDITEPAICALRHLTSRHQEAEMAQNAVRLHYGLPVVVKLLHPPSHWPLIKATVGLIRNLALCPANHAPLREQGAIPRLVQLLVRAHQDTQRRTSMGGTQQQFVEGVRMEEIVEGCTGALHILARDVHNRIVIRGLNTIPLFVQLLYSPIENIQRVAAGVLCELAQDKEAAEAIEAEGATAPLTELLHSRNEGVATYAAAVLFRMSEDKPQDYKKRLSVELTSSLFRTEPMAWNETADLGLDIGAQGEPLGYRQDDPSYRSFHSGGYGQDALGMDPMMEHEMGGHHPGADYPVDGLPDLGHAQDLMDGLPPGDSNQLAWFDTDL

T3: Bcat-Halo (beta-catenin HaloTag construct transfected into HEK293 cells) (UniProt P35222 1-781)
T3 sequence (looked up): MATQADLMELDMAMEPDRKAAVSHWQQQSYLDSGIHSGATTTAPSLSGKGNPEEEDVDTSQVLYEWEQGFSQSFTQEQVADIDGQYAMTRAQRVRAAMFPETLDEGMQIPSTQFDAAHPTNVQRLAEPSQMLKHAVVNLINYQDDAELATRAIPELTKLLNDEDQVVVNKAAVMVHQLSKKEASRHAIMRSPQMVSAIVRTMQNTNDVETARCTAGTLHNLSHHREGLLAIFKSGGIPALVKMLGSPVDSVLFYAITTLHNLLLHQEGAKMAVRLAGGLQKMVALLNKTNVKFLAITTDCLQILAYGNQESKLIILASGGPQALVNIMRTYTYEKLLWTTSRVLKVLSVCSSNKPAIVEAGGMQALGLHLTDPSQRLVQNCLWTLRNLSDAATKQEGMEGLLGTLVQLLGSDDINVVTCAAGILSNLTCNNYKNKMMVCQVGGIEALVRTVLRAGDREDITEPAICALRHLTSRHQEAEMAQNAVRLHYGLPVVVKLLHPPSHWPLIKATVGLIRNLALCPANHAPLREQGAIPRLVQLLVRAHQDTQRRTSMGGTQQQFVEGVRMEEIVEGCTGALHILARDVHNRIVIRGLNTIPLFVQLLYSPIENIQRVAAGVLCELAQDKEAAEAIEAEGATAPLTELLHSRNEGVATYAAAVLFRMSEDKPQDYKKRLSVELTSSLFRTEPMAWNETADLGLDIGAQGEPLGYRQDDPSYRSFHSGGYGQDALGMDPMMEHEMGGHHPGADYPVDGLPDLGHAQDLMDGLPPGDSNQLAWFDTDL


Columns and labels:
Assay in all cases: cell-based or functional assay
[1] = biological target: T1, B-cat-Halo (beta-catenin HaloTag …)
[2] = biological target: T2, B-cat-Halo (beta-catenin HaloTag …)
[3] = biological target: T3, Bcat-Halo (beta-catenin HaloTag …)

Row | Binder | NanoBRET Abs IC50 [1] [µM] | also measured
1 | Ac-[αAllylPro]D[tBuAla][B5(3)]D[TfeGA]AAFL[PyrS2″][3Thi][Bta][(RDMAPyr)GlnR]-NH2 (staple 1-4, 4-11; not fully specified) [I-1805] | 9.3 | 
2 | Ac-[αAllylPro]D[tBuAla][B5(12)]D[Phe(3-COOH)]AAFL[PyrS2(4)][Phe(2-Cl)][Bta]S[Thr(ol)] (staple 1-4, 4-11; not fully specified; printed as Ac-PL3-Asp-Npg-B5-Asp-3COOHF-Ala-Ala-Phe-Leu-PyrS2-2C1F-BztA-Ser-Thro1; reading uncertain) [I-1905] |  | NanoBRET Abs IC50 [2]: 9.7 µM
3 | Ac-[αAllylPro]D[tBuAla][B5(5)]D[Phe(3-COOH)]SAFL[PyrS2(4)][Phe(2-Cl)][Bta]S-NH2 (staple 1-4, 4-11; not fully specified; printed as Ac-PL3-Asp-Npg-B5-Asp-3COOHF-Ser-Ala-Phe-Leu-PyrS2-2C1F-BztA-Ser-NH2; reading uncertain) [I-1902] |  | NanoBRET Abs IC50 [2]: 7.7 µM
4 | Ac-[αAllylPro]D[tBuAla][B5(12)]D[Phe(3-COOH)]AAFL[PyrS2(4)][Phe(2-Cl)][Bta]N-NH2 (staple 1-4, 4-11; not fully specified; printed as Ac-PL3-Asp-Npg-B5-Asp-3COOHF-Ala-Ala-Phe-Leu-PyrS2-2C1F-BztA-Asn-NH2; reading uncertain) [I-1904] |  | NanoBRET Abs IC50 [2]: 4.2 µM
5 | Ac-[αAllylPro]D[tBuAla][B5(3)]DDAAFL[PyrS2″][3Thi][Bta]QK([PEG2′-Me3AdamantC])-NH2 (staple 1-4, 4-11) [I-1480] |  | NanoBRET Abs IC50 [3]: 9.3 µM
6 | Ac-[αAllylPro]D[tBuAla][B5(3)]D[TfeGA]AAFL[PyrS2″][3Thi][Bta][(4Pippip)GlnR]-NH2 (staple 1-4, 4-11; not fully specified) [I-1797] | 22.5 | 
7 | Ac-[αAllylPro]D[tBuAla][B5(3)]DD[F2PipNva]AFL[PyrS2″][3Thi][Bta]Q-NH2 (staple 1-4, 4-11) [I-1482] |  | NanoBRET Abs IC50 [3]: 18 µM
8 | Ac-[αAllylPro]D[tBuAla][B5(3)]D[TfeGA″]AAFL[PyrS2″][3Thi][Bta][(4MePpzPip)GlnR]-NH2 (staple 1-4, 4-11; not fully specified; reading uncertain) [I-1802] | 25.2 | 
9 | Ac-[αAllylPro]D[tBuAla][B5(3)]D[TfeGA″]AAFL[PyrS2″][3Thi][Bta][(Me2NPrPip)GlnR]-NH2 (staple 1-4, 4-11; not fully specified; reading uncertain) [I-1800] | 25.2 | 
10 | Ac-[αAllylPro]D[tBuAla][B5(3)]D[TfeGA]AAFL[PyrS2″][3Thi][Bta][(4MePpzPip)GlnR]-NH2 (staple 1-4, 4-11; not fully specified) [I-1801] | 17.5 | 
11 | Ac-[αAllylPro]D[tBuAla][B5(4)]DDAAFL[PyrS2″][3Thi][Bta]QK([PEG2′-Lithocholoyl])-NH2 (staple 1-4, 4-11) [I-1478] |  | NanoBRET Abs IC50 [3]: 17.1 µM

The next lines start with results.

Row | NanoBRET Abs IC50 [1] [µM] | Binder | also measured
12 | > 20 | Ac-[αAllylPro]D[tBuAla][B5(19)]DDAAFL[PyrS1][3Thi][Bta]Q-NH2 (staple 1-4, 4-11; not fully specified; printed as Ac-PL3-Asp-Npg-B5-Asp-Asp-Ala-Ala-Phe-Leu-PyrS1-3Thi-BztA-Gln-NH2) [I-1815] | 
13 | > 20 | Ac-[αAllylPro]D[tBuAla][S5]DDAAFL[Aib][3Thi][Bta]Q-NH2 (staple 1-4; not fully specified; printed as Ac-PL3-Asp-Npg-S5-Asp-Asp-Ala-Ala-Phe-Leu-Aib-3Thi-BztA-Gln-NH2) [I-1807] | 
